The supplement of paper PMC7125110
± gives the standard error. For some assays here: This sample holds only a part of the variants without activity.

B1: glmS ribozyme (parent)
chain: AUAAAAGCGCCAGAACUACAGAAAUGUAGUUGACGAGGAGGAGGUUUAUCGAAUUUUCGGCGGAUGCCUCCAAA

Tests used:
Conditions in all cases: with glucosamine-6-phosphate
[1] = variants of: B1; test: kcat; higher = faster cleavage; RNA array
Outline: (§1)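 Glucosamine-6-phosphate in HEPES/KCl/Mg(OAc)2 buffer, at 40 μM to 10 mM, was flowed over barcoded ribozyme variants transcribed in situ by E. coli RNA polymerase on sequenced MiSeq chips. Tracking was through a hybridised Cy3 probe at 37 °C. kobs, kcat and KM came from exponential decay fits and weighted Michaelis–Menten fits of normalised per-tile medians.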

[2] = variants of: B1; test: KM; higher = weaker cofactor use; RNA array
Outline: as §1

[3] = variants of: B1; test: self-cleavage kobs at 640 uM GlcN6P; higher = faster cleavage; RNA array
Outline: as §1

[4] = variants of: B1; test: self-cleavage kobs at 2500 uM GlcN6P; higher = faster cleavage; RNA array
Outline: as §1

[5] = variants of: B1; test: self-cleavage kobs at 10000 uM GlcN6P; higher = faster cleavage; RNA array
Outline: as §1

[6] = variants of: B1; test: self-cleavage kobs at 40 uM GlcN6P; higher = faster cleavage; RNA array
Outline: as §1

[7] = variants of: B1; test: self-cleavage kobs at 160 uM GlcN6P; higher = faster cleavage; RNA array
Outline: as §1

Row | Variant | kcat [1] | KM [2] | self-cleavage kobs at 640 uM GlcN6P [3] | self-cleavage kobs at 2500 uM GlcN6P [4] | self-cleavage kobs at 10000 uM GlcN6P [5] | self-cleavage kobs at 40 uM GlcN6P [6] | self-cleavage kobs at 160 uM GlcN6P [7]
1 | C11A G59A | 0.000719 ± 4.8e-05 s⁻¹ | 4140 ± 480 µM | 9.86e-05 ± 1.6e-05 s⁻¹ | 0.000248 ± 5e-05 s⁻¹ | 0.000516 ± 5.9e-05 s⁻¹ | – | –
2 | A33C U57A | 2.16e-05 ± 4.2e-06 s⁻¹ | – | – | – | – | – | –
3 | G13A U69A | 4.03e-05 ± 1.6e-05 s⁻¹ | – | – | 6.18e-05 ± 1.2e-05 s⁻¹ | – | – | –
4 | G29U C70A | 6.65e-05 ± 8.1e-06 s⁻¹ | – | 4.74e-05 ± 7.5e-06 s⁻¹ | 6.79e-05 ± 7.2e-06 s⁻¹ | 5.54e-05 ± 7.6e-06 s⁻¹ | – | –
5 | A33U A52U | 1.29e-05 ± 2.5e-06 s⁻¹ | 8300 ± 3400 µM | – | – | – | – | –
6 | C16U G32C | 0.000168 ± 3e-05 s⁻¹ | 3960 ± 1900 µM | – | 7.33e-05 ± 1.4e-05 s⁻¹ | 0.000119 ± 1.2e-05 s⁻¹ | – | –
7 | U30G G38U | < 1e-05 s⁻¹ | 87.6 ± 41 µM | – | – | – | – | –
8 | C16U U56G C68G | 5.74e-05 ± 1.5e-05 s⁻¹ | – | 9.61e-05 ± 2.8e-05 s⁻¹ | – | 6.1e-05 ± 1.3e-05 s⁻¹ | – | –
9 | A14C U45A | 0.00955 ± 0.0035 s⁻¹ | – | 0.00207 ± 0.00049 s⁻¹ | 0.00469 ± 0.00097 s⁻¹ | 0.0131 ± 0.0028 s⁻¹ | 0.000245 ± 3.9e-05 s⁻¹ | 0.000909 ± 0.00039 s⁻¹
10 | U65C C71G | 4.3e-05 ± 1.5e-05 s⁻¹ | – | – | 8.15e-05 ± 1.6e-05 s⁻¹ | 3.44e-05 ± 8.1e-06 s⁻¹ | < 1e-05 s⁻¹ | –
11 | A15U A48C | 2.45e-05 ± 3.9e-06 s⁻¹ | – | – | – | – | – | –
12 | G51A G66C | < 1e-05 s⁻¹ | 510 ± 240 µM | – | – | – | – | –
13 | C11U A12C | 9.58e-05 ± 3.4e-06 s⁻¹ | 1050 ± 120 µM | 3.76e-05 ± 7e-06 s⁻¹ | 6.24e-05 ± 1.2e-05 s⁻¹ | 8.81e-05 ± 9e-06 s⁻¹ | – | –
14 | G40U U45C C70U | 0.000444 ± 6.4e-05 s⁻¹ | 1000 ± 370 µM | 0.000186 ± 3.9e-05 s⁻¹ | 0.00025 ± 8.8e-05 s⁻¹ | 0.000426 ± 7.7e-05 s⁻¹ | – | –
15 | U30G U45A | 0.0197 ± 0.0054 s⁻¹ | 1680 ± 600 µM | 0.00474 ± 0.0013 s⁻¹ | 0.0101 ± 0.0026 s⁻¹ | 0.0239 ± 0.0066 s⁻¹ | 0.000528 ± 9.3e-05 s⁻¹ | 0.00157 ± 0.00042 s⁻¹
16 | U46G U55A | 0.0163 ± 0.0061 s⁻¹ | – | 0.0028 ± 0.00069 s⁻¹ | 0.00456 ± 0.0013 s⁻¹ | 0.0133 ± 0.0027 s⁻¹ | 0.000166 ± 3.9e-05 s⁻¹ | –
17 | C16G G29A | 0.00419 ± 0.00058 s⁻¹ | 1940 ± 370 µM | 0.00103 ± 0.00015 s⁻¹ | 0.00212 ± 0.00039 s⁻¹ | 0.00387 ± 0.00066 s⁻¹ | 9.85e-05 ± 1.6e-05 s⁻¹ | 0.000295 ± 5.2e-05 s⁻¹
18 | A14G A64G U65A | 0.00407 ± 0.0014 s⁻¹ | – | 0.00307 ± 0.0012 s⁻¹ | 0.00271 ± 0.0008 s⁻¹ | 0.00718 ± 0.0031 s⁻¹ | 0.000284 ± 0.0001 s⁻¹ | 0.000621 ± 0.00019 s⁻¹
